Publication PMC7864067

Biological target: PFN2 (endogenous, isoform not told apart) (human (endogenous in HAP1)) (UniProt P35080)
Chain of UniProt P35080 (P35080 whole entry, canonical isoform): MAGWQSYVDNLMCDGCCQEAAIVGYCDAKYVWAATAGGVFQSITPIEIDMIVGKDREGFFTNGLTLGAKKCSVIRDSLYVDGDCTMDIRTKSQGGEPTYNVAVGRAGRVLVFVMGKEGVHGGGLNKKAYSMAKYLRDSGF

Substance: V5-NAA80 (M23L) Δ238-284 (enzyme)
- actin reacetylation assay in HAP1 NAA80-KO cells, 8-14 h after transfection: Ac-β-actin signal normalised to V5, compared with cells transfected with NAA80-WT, at 14 h: 64%
- actin reacetylation assay in HAP1 NAA80-KO cells, 8-14 h after transfection: Ac-γ-actin signal normalised to V5, compared with cells transfected with NAA80-WT, at 14 h: 62%
